Results on 30 sequences are retold here after the supplement of paper PMC9170038.

For data set [1], the system named is MS2 coat protein. Description: apparent KD of MS2 coat protein; designed switch direction (-1 OFF switch, 1 ON switch): 1; higher = weaker reporter binding. As to conditions: Eterna round: R98. As to the method: (§1)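 RNA-MaP: designed FMN/MS2 RNA switches (84 nt design region) are transcribed on-chip within common flanks and titrated with SNAP-549-labelled MS2 coat protein (about 1-3000 nM) in 100 mM Tris pH 7.5, 80 mM KCl, 4 mM MgCl2, without or with 200 uM FMN. Median apparent KD per design; activation ratio = KD,OFF / KD,ON.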

For data set [2], the system named is MS2 coat protein. Description: apparent KD of MS2 coat protein; higher = weaker reporter binding. As to conditions: Eterna round: R101. The protocol:
as §1

As to “AAAACAUGAGGAUCACCCAUGUAAAGAUCGGUUAAUAAAAGUGAGGAUAUACAAAAUUUUAUAUAGUAGAAGGCACUGGGUACA [JR_SSNG3_Sub002]”, the results for the “apparent KD of MS2 coat protein” value with MS2 coat protein [1] (input ligand: FMN 200 uM) and with MS2 coat protein [1] (input ligand: none) were 29.7 nM and 28.3 nM, respectively.
The matching figures for “AAAACAUGAGGAUCACCCAUGUAAUGAUCGGUUAAUAGAAGUGAGGAUAUGCUUAAAAUAAGGUAGCAGAAGGCACUGGGUACA [JR_SSNG3_Sub041]”: 31.3 nM and 28.1 nM.
Consider “AAAUAAAAUAUAGGAUAUGGAAACAUGAGGAUCACCCAUGUAAAAUAAGAUAAAUAAUAAUAUAACCAGAAGGAUAAAAUAUAA [LRO003_SS NG 2]”, for which the “apparent KD of MS2 coat protein” value with MS2 coat protein [1] (input ligand: FMN 200 uM) stood at 53.3 nM; in the data set with MS2 coat protein [1] (input ligand: none), 30 nM.
For “AAGCAAACAUGAGGAUCACCCAUGUAACUGCUUUUGGCGACACAGGAUAUACAGCGACAUUGGCGGUAGAAGGGUGAUUGAAGU [Araisleen]”, the figures for the “apparent KD of MS2 coat protein” value in the data set on MS2 coat protein [1] (input ligand: FMN 200 uM) and in the data set with MS2 coat protein [1] (input ligand: none) were 51.1 nM and 22.2 nM, respectively.
For “ACCGGCACUUACAUGAGGAUCACCCAUGUGUGCAAUCGGACACAGGAUAUCCAUGGUAAGUAUCGGGAGAAGGGUGGAAAGAAA [Reustion]”, in that order: 258 nM and 142 nM.
For the sequence “AGAACAUGAGGAUCACCCAUGUGAAGGUCGGCGUAUAAGGGUGAGGAUAUGCUUAAAAUAAGGAAGCAGAAGGUGCUUGGUGCG [SameState #79 NG3]”, the “apparent KD of MS2 coat protein” value was found to be 102 nM in the data set with MS2 coat protein [1] (input ligand: FMN 200 uM) and 137 nM in the data set with MS2 coat protein [1] (input ligand: none).
On to “AGUCGGAGCAGAGGAUAUUACAUGAGGAUCACCCAUGUAUGAACCAAUAGCUGGAAACAGCAAUGUAAGAAGGCUGCUCCGACA (puzzle (switch architecture): Exclusion NG 2)”, for which the “apparent KD of MS2 coat protein” value in the data set with MS2 coat protein [2] (input ligand: FMN 200 uM) was determined as 169 nM; with MS2 coat protein [2] (input ligand: none), 12.9 nM.
For “AGUGUCAUCGAGAAGGCCUCAACAUGAGGAUCACCCAUUUUGAAAAGUGGGAGGAUAUCGAUGAUACAGCUACGUUUCGUAGCA [salish99_InSLSSNG1_023 #HINGE] (puzzle (switch architecture): Inverted Small Loop Same State NG 1)”, in that order: 132 nM and 107 nM.
The matching figures for “AUAUGAUUAAGAGGAUAUAUACAACAUGAGGAUCACCCAUGUACCCAUGUAGUAGAAGGUUUAUUUUUAUAUAAUAAUAUAAUU [AstrosLoopssng1#12] (puzzle (switch architecture): Small Loop Same State NG 1)”: 61.4 nM and 82.9 nM.
In the case of “AUCAAUCACAUAGGAUAUAGAAUAUUAUAUUUUUACAUGAGGAUCACCCAUGUUUUAUUGGGAUUCUAGAAGGAUGAGUAAUAA [JR_SSNG2_Sub055Nu]”, the results for the “apparent KD of MS2 coat protein” value with MS2 coat protein [1] (input ligand: FMN 200 uM) and in the data set with MS2 coat protein [1] (input ligand: none) were 96.9 nM and 147 nM, respectively.
As to “CAACAAUGGUGAGGAUAUGCAAAGGAUCACCUUGUAGAAGGCAUCAGGUAGAAGGUGCAGAGGAUCACCCUGUAAGGAUAUAUC [pwkr2 ssNG1 DX.21]”, the “apparent KD of MS2 coat protein” value came to 69.9 nM in the data set on MS2 coat protein [1] (input ligand: FMN 200 uM) and 176 nM in the data set on MS2 coat protein [1] (input ligand: none).
In the case of “CCAGUUCUGGCAUCCUUAUUACAUGAGGAUCACCCAUGUUGUGAGGAUAUCCCAACCCACGGUCAGGAGAAGGCACAUAGAGGG [Eduscebira] (puzzle (switch architecture): Exclusion NG 3)”, the figures for the “apparent KD of MS2 coat protein” value in the data set on MS2 coat protein [2] (input ligand: FMN 200 uM) and with MS2 coat protein [2] (input ligand: none) were 5.37 nM and 5.89 nM, respectively.
For “CCGACGACUUAGAAGGCACUCGCAUAAUGCGAGUGAGGAUAUGAGGAUCACCCAUAUCAACGUCGGAGUCACCGAAACGGUGAC [#SharedSequence - IEx NG 4-2] (puzzle (switch architecture): Inverted Exclusion NG 1)”, in that order: 7.98 nM and 8.45 nM.
For “CCGACGCUUCAGAAGGCACUCGCAUAAUGCGAGUGAGGAUAUGAGGAUCACCCAUAUCAACGUCGGAGUCACCGAAACGGUGAC [#SharedSequence - IEx NG 2-2] (puzzle (switch architecture): Inverted Exclusion NG 1)”, in that order: 14.4 nM and 8.54 nM.
As for “CGCUAUUACAUGAGGAUCACCCAUGUAUACAUGGGAUUGUCGUAGGAUAUGCAGAAGAUUAAAGUGCAGAAGGACGGUAUAGCG [JR #DistanceClose #Static #StaticP #NP SSNG3 Sub068] (puzzle (switch architecture): Same State NG 3)”, the results for the “apparent KD of MS2 coat protein” value in the data set with MS2 coat protein [2] (input ligand: FMN 200 uM) and in the data set with MS2 coat protein [2] (input ligand: none) were 1.03 nM and 3.46 nM, respectively.
For “CUGGUUGUCGUAGGAUAUGUAGGAUAUUCCUACAUGAGGAUCACCCAUGUUCGCAUGGAAGAAGGACAGAAGGACGAUGACCAC [salish99_SSNG2_013 #endbits investigation] (puzzle (switch architecture): Same State NG 2)”, in that order: 9.19 nM and 1050 nM.
The matching figures for “GGAGAUACAUGAGGAUCACCCAUGUAGGAUAUAUAGUAUAUAUAUGGCGAAAGCCAUAUAUAUAUAUAGAAGGGCGUACACACC [#LOL-14] (puzzle (switch architecture): Small Loop Exclusion NG 3)”: 7.28 nM and 8.22 nM.
The matching figures for “GGAGAUACAUGAGGAUCACCCAUGUAGGAUAUCGGGCCCGUACCCGGCGAAAGCCGGGUACGGGCCGAGAAGGGCGUACACACC [#LOL-4] (puzzle (switch architecture): Small Loop Exclusion NG 3)”: 9.27 nM and 9.3 nM.
With “GGAGAUACAUGAGGAUCACCCAUGUAGGAUAUCGGGCCCGUGCCCGGCGAAAGCCGGGCACGGGCCGAGAAGGGCGUACACACC [#LOL-3] (puzzle (switch architecture): Small Loop Exclusion NG 3)”, the figures for the “apparent KD of MS2 coat protein” value in the data set on MS2 coat protein [2] (input ligand: FMN 200 uM) and with MS2 coat protein [2] (input ligand: none) were 7.66 nM and 8.78 nM, respectively.
For “GGAUAGGACAGAGGAUAUACGUGCUAGAGAUACUAGCAAAAUAUCCUCACAUGAGGAUCACCCAUGUAGAAGGCUGUCCUAUCG (puzzle (switch architecture): Exclusion NG 2)”, in that order: 20.1 nM and 5.49 nM.
In the case of “GGAUAGGACAGAGGAUAUACGUGCUAGAGAUACUAGCAAAAUUUCCUCACAUGAGGAUCACCCAUGUAGAAGGCGGUCCUAUCG (puzzle (switch architecture): Exclusion NG 2)”, the “apparent KD of MS2 coat protein” value with MS2 coat protein [2] (input ligand: FMN 200 uM) was 8.8 nM; in the data set with MS2 coat protein [2] (input ligand: none) it was 5.37 nM.
The matching figures for “GGAUAGGACAGAGGAUAUACGUGCUAGAGAUACUAGCAAAAUUUCCUCACAUGAGGAUCACCCAUGUAGAAGGCUGUCCUAUCU (puzzle (switch architecture): Exclusion NG 2)”: 395 nM and 18.6 nM.
On to “GGCAGCUUUCAGAAGGGAGUGCGAUAAUCGCACUCAGGAUAUGAGGAUCACCCAUAUCAUGCUGCCACUGAGGCAAAGCCUCAG [#SharedSequence - IEx NG 3-1] (puzzle (switch architecture): Inverted Exclusion NG 1)”, for which the “apparent KD of MS2 coat protein” value turned out to be 13.3 nM in the data set on MS2 coat protein [2] (input ligand: FMN 200 uM) and 11 nM with MS2 coat protein [2] (input ligand: none).
The matching figures for “GUACAUGAGGAUCACCCAUGUCACAUAACGUCCGAGGAUACCAGAAGGGCAGACGUUACGACGGUGCAGGAUAUGGGCUCCUAA [Beceanbe] (puzzle (switch architecture): Inverted Same State NG 3)”: 37.2 nM and 56.6 nM.
As to “GUAGCAGCGGCGCCCUCGUAGACAUGAGGAUCACCCAUGUCGCAGGAUAUCAGAAGCGGAGCUGCUGAGAAGGGCGACAUAAGG [Quorus] (puzzle (switch architecture): Exclusion NG 3)”, the “apparent KD of MS2 coat protein” value stood at 13.8 nM with MS2 coat protein [2] (input ligand: FMN 200 uM) and 7.25 nM in the data set on MS2 coat protein [2] (input ligand: none).
In the case of “GUAGCAUACGGAGGAUAUUCAUACCGGAAACGGACAUGAGGAUCACCCAUGUGGCGAAAGCCUUGGGAGAAGGCCGUAUGCUAC [#DoubleMagnetSystem - Mat - Same State NG 2 - JL Mod - D 61] (puzzle (switch architecture): Same State NG 2)”, the “apparent KD of MS2 coat protein” value in the data set with MS2 coat protein [2] (input ligand: FMN 200 uM) is 8.06 nM; in the data set on MS2 coat protein [2] (input ligand: none), 187 nM.
The matching figures for “UGAUAGGACAGAGGAUAUACGUGCUAGAGAUACUAGCAAAAUUUCCUCACAUGAGGAUCACCCAUGUAGAAGGCUGUCCUAUCU [#PyrimidineMS2Turnoff - Eli xng 2.01 rotated] (puzzle (switch architecture): Exclusion NG 2)”: 533 nM and 16.5 nM.
As for “UGGUACUAGGGAGGAUAUGGGAAGAUACAUGAGGAUCACCCAUGUUUAAGAAUGCCGAGAGGCAACUAGAAGGCCCUAGUACCU (puzzle (switch architecture): Same State NG 2)”, the “apparent KD of MS2 coat protein” value in the data set with MS2 coat protein [2] (input ligand: FMN 200 uM) stood at 18.9 nM; with MS2 coat protein [2] (input ligand: none), 437 nM.
For “UUGGACGUCGUAGGAUAUGUAGGAUAUUCCUACAUGAGGAUCACCCAUGUUGAAAUGGAAGAAGGACAGAAGGACGAUGUCCAU (puzzle (switch architecture): Same State NG 2)”, in that order: 3.83 nM and 19.4 nM.
Consider “UUUAAUAUUAUAGGAUAUGGAUACGAUACGUAUCCAGAAGGGUGAUUAUAAUAUAAUCUAUACAUGAGGAUCACCCAUGUUUAU [AtrosYaY8] (puzzle (switch architecture): Same State NG 1)”, for which the “apparent KD of MS2 coat protein” value with MS2 coat protein [2] (input ligand: FMN 200 uM) came to 84.8 nM; with MS2 coat protein [2] (input ligand: none) it was 205 nM.
